According to US20220251241A1 (NGM BIOPHARMACEUTICALS, published 2022):

Legend:
[1] = target: HTRA1-CAT R190A mutant (human, UniProt Q92743 156-364); assay: ELISA
Method: (§1) A series of mutated HTRA1-catalytic domain (HTRA1-CAT; amino acids 156-364 of SEQ ID NO:1) proteins containing single amino acid substitutions were generated by standard methods (e.g., site directed mutagenesis). Antibody 24F7 was tested by ELISA for binding to these mutant HTRA1-CAT proteins as well as a wild-type HTRA1 peptide consisting of amino acids […] (SEQ ID NO:92; R190—V201 of SEQ ID NO:1).

[2] = target: HTRA1-CAT P193A mutant (human, UniProt Q92743 156-364); assay: ELISA
Chain of HTRA1-CAT P193A mutant (Q92743 156-364 P193A): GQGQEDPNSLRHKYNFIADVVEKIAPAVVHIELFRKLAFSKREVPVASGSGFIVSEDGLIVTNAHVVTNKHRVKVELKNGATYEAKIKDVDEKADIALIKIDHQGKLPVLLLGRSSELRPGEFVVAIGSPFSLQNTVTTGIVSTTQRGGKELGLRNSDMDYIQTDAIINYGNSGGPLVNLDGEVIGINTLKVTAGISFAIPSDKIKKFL
Method: as §1

[3] = target: HTRA1-CAT F194A mutant (human, UniProt Q92743 156-364); assay: ELISA
Chain of HTRA1-CAT F194A mutant (Q92743 156-364 F194A): as the sequence (Q92743 156-364 P193A) above, with A38P, F39A counted along it
Method: as §1

[4] = target: HTRA1-CAT R197A mutant (human, UniProt Q92743 156-364); assay: ELISA
Chain of HTRA1-CAT R197A mutant (Q92743 156-364 R197A): as the sequence (Q92743 156-364 P193A) above, with A38P, R42A counted along it
Method: as §1

[5] = target: T1, wild-type HTRA1 peptide RKLPFSKREVPV (R190-V201 of SEQ ID NO:1) (human); assay: ELISA
T1 construct: also called Wild type peptide (R190 - V201)
T1 peptide: RKLPFSKREVPV
Method: as §1

[6] = target: T2, HTRA1 (construct not given) (Homo sapiens (Human), UniProt Q92743 23-480, limits assumed); assay: cell-based or functional assay
T2 sequence (Q92743 23-480 limits assumed): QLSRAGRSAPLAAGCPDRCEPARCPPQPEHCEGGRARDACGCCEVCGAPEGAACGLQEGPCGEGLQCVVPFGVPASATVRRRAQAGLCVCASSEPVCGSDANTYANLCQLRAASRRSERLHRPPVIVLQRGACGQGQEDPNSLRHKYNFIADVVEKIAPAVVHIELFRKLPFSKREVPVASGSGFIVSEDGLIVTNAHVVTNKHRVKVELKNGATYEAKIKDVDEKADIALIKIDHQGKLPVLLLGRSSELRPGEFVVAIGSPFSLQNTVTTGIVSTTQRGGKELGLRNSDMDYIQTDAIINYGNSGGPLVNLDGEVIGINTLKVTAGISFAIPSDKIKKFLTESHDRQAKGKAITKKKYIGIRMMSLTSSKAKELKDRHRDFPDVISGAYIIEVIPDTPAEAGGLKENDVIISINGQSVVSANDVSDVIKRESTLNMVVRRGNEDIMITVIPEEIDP

[7] = target: endogenously expressed HTRA1 secreted by the human melanoma cell line C32 (human, UniProt Q92743 23-480); assay: cell-based or functional assay
Chain of endogenously expressed HTRA1 secreted by the human melanoma cell line C32 (Q92743 23-480): as the sequence (Q92743 23-480 limits assumed) above

[8] = target: T2, HTRA1 (construct not stated in the …); assay: SPR (Biacore), 25° C.
Method: (§2) The binding affinities of anti-HTRA1 antibodies to human HTRA1 were measured using a Biacore system (GE Healthcare Life Sciences). Briefly, anti-Fc antibody (Sigma-Aldrich) was immobilized on all four flow cells of a CMS chip using amine coupling reagents (GE Healthcare LifeSciences). Antibodies were captured on flow cells 2, 3, and 4 using flow cell 1 as a reference. […] Kinetic data were collected over time and fit using the simultaneous global fit equation to yield affinity constants (KD values) for each antibody.
(§3) SPR assays were set up using a Biacore system as described herein.

[9] = target: T2, HTRA1 (construct not stated in the …); assay: SPR (Biacore), 37° C.
Method: (§4) The binding affinities of anti-HTRA1 antibodies to human HTRA1 were measured using a Biacore system (GE Healthcare Life Sciences). Briefly, anti-Fc antibody (Sigma-Aldrich) was immobilized on all four flow cells of a CMS chip using amine coupling reagents (GE Healthcare LifeSciences). Antibodies were captured on flow cells 2, 3, and 4 using flow cell 1 as a reference. Concentrations ranging from 3.3-10 nM of human delta N-HTRA1 were injected at a flow rate of 50 μL/min at 37° C. Kinetic data were collected over time and fit using the simultaneous global fit equation to yield affinity constants (KD values) for each antibody.
as §3

[10] = target: T3, human HTRA1 full length protein (HTRA1-FL) (human, UniProt Q92743 23-480); assay: SPR (Biacore), 37° C.
T3 construct: also called human HTRA1-FL
T3 sequence (Q92743 23-480): as the sequence (Q92743 23-480 limits assumed) above
Method: as §4
(§5) The binding affinity of hz24F7.v2 to a HTRA1 full length protein (HTRA1-FL) or a HTRA1-CAT was determined using a Biacore system as described herein and compared with the binding affinity of the parental 24F7 antibody (see Table 9).

[11] = target: T2, HTRA1 (construct not stated in the …); assay: cell-based or functional assay; remark: listed apart in the source
[12] = target: T2, HTRA1 (construct not stated in the …); assay: cell-based or functional assay; remark: listed apart in the source
[13] = target: T2, HTRA1 (construct not stated in the …); assay: cell-based or functional assay; remark: listed apart in the source
[14] = target: T2, HTRA1 (construct not stated in the …); assay: protease inhibition assay, casein substrate; apparent Ki (Ki^app)
Source text: (§6) Two enzymatic assays were used to characterize HTRA1 protease activity and evaluate inhibitory activity of anti-HTRA1 antibodies. EnzChek® Protease Assay Kit (ThermoFisher Scientific) was used following the manufacturer's instructions. This kit contains casein protein that is heavily labeled with the pH-insensitive green-fluorescent BOPIPY® FL dye that results in almost total quenching of the conjugate's fluorescence. Protease-catalyzed hydrolysis of labeled casein releases highly fluorescent BODIPY® FL dye-labeled peptides. The concomitant increase in fluorescence is proportional to protease activity.
To confirm that the humanized version of antibody 24F7 retained the ability to inhibit H IRA1 protease activity, hz24F7.v2 was assessed in casein and H2-Opt assays as described herein.

[15] = target: T2, HTRA1 (construct not stated in the …); assay: protease inhibition assay, H2-Opt peptide substrate; apparent Ki (Ki^app)
[16] = target: T2, HTRA1 (construct not stated in the …); assay: protease inhibition assay, casein substrate (EnzChek); apparent Ki (Ki^app)
Source text: as §6
Antibodies identified in HTRA1 binding assays were tested for their ability to inhibit HTRA1 protease activity. The range of antibody concentrations was tested to establish a dose response curve and determine IC₅₀ values.

[17] = target: T2, HTRA1 (construct not stated in the …); assay: protease inhibition assay, H2-Opt peptide substrate (FRET); apparent Ki (Ki^app)
[18] = target: human delta N-HTRA1 (amino acids 156-480 of SEQ ID NO:1) (human, UniProt Q92743 156-480); assay: SPR (Biacore); antibody captured by anti-Fc, human delta N-HTRA1 injected; temperature of this table not stated
Chain of human delta N-HTRA1 (amino acids 156-480 of SEQ ID NO:1) (Q92743 156-480, stated change not applied): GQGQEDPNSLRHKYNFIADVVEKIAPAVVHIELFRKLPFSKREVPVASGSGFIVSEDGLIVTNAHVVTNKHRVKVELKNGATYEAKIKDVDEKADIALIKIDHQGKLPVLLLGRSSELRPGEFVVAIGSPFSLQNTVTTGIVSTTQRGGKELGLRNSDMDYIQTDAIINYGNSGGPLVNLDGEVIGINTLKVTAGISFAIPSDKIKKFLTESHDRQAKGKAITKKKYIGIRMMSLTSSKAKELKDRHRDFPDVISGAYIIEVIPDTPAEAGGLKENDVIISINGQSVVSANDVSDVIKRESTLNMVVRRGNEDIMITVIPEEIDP
Method: as §4

[19] = target: endogenous HTRA1 protein in the serum of the animals dosed with hz24F7.v2 (PK serum samples) (cynomolgus monkey); assay: cell-based or functional assay
[20] = target: T3, human HTRA1 full length protein …; assay: SPR (Biacore), 25° C.
[21] = target: T4, HTRA1-catalytic domain (HTRA1-CAT; amino acids 156-364 of SEQ ID NO:1) (human, UniProt Q92743 156-364); assay: SPR (Biacore), 25° C.
T4 construct: Wild-type catalytic domain construct; also called HTRA1 catalytic domain protein
T4 sequence (Q92743 156-364): as the sequence (Q92743 156-364 P193A) above, with A38P counted along it

[22] = target: T4, HTRA1-catalytic domain (HTRA1-CAT; …); assay: SPR (Biacore), 37° C.
Method: as §4, §5

[23] = target: T2, HTRA1 (construct not stated in the …); assay: cell-based or functional assay; remark: listed apart in the source
[24] = target: T2, HTRA1 (construct not stated in the …); assay: cell-based or functional assay; remark: listed apart in the source
[25] = target: T2, HTRA1 (construct not stated in the …); assay: cell-based or functional assay; remark: listed apart in the source
[26] = target: T2, HTRA1 (construct not stated in the …); assay: SPR (Biacore); affinity at baseline
[27] = target: T4, HTRA1-catalytic domain (HTRA1-CAT; …); assay: SPR (Biacore), 37° C.; * = Limit of Detection
Method: as §4, §5

[28] = target: T4, HTRA1-catalytic domain (HTRA1-CAT; …); assay: SPR (Biacore), 25° C.; kon at the limit of detection
[29] = target: T4, HTRA1-catalytic domain (HTRA1-CAT; …); assay: SPR (Biacore), 37° C.; kon at the limit of detection
Method: as §4, §5

[30] = target: T2, HTRA1 (construct not stated in the …); assay: SPR (Biacore), 25° C.; antibody captured; sample stored 0 weeks at pH 7.4, 40° C.
Method: as §2, with “antibody. […]” for “antibody.”

[31] = target: T2, HTRA1 (construct not stated in the …); assay: SPR (Biacore), 25° C.; antibody captured; sample stored 2 weeks at pH 7.4, 40° C.
Method: as §2, with “antibody. […]” for “antibody.”

[32] = target: T2, HTRA1 (construct not stated in the …); assay: SPR (Biacore), 25° C.; antibody captured; sample stored 4 weeks at pH 7.4, 40° C.
Method: as §2, with “antibody. […]” for “antibody.”

[33] = target: T2, HTRA1 (construct not stated in the …); assay: SPR (Biacore), 25° C.; antibody captured; sample stored 8 weeks at pH 7.4, 40° C.
Method: as §2, with “antibody. […]” for “antibody.”

[34] = target: T4, HTRA1-catalytic domain (HTRA1-CAT; …); assay: SPR (Biacore), 25° C.; * = Limit of Detection; 25° C.; HTRA1-CAT; kon at limit of detection

Chain of HTRA1-CAT R190A mutant (Q92743 156-364 R190A): as the sequence (Q92743 156-364 P193A) above, with R35A, A38P counted along it

B1: antibody 24F7 (antibody, V domains shown)
VH: QVQLQQSGAELVRPGASVKLSCKASGYTFTDYEMHWVKQTPVHGLEWIGAIDPETGGTAYNQKFKGKATLTADKSSSTAYMELRSLTSEDSAVYYCTREGYSYDGGGYYFDYWGQGTTLTVSS
VL: QIVLTQSPAIMSASPGEKVTMTCSVSSSVSYMYWYQQKPGSSPRLLIYDTSNLASGVPVRFSGSGSGTSYSLTISRMEAEDAATYYCQQWSSYPTFGGGTKLEIK
notes: Mouse hybridoma monoclonal antibody; also called parental 24F7 antibody
binding result [1]: no binding | binding result [2]: binds | binding result [3]: binds | binding result [4]: no binding | binding result [5]: no binding | IC50 of inhibition of HTRA1 protease activity, H2-Opt peptide as substrate [6]: 0.164 nM | IC50 of inhibition of HTRA1 protease activity, casein as substrate [6]: 0.145 nM | IC50 of inhibition of protease activity, EnzChek protease assay with C32 conditioned media [7]: 0.118 nM | Kd [8]: 0.03 nM | koff [8]: 5e-05 s⁻¹ | kon [8]: 1.6e+06 M⁻¹ s⁻¹ | Kd [9]: 0.021 nM | koff [9]: 8.2e-05 s⁻¹ | kon [9]: 4e+06 M⁻¹ s⁻¹ | Kd [10]: 0.047 nM | koff [10]: 8.6e-05 s⁻¹ | kon [10]: 1.8e+06 M⁻¹ s⁻¹ | IC50, Protease Assay-Casein substrate [11]: 0.15 nM | IC50, Protease Assay-H2-Opt peptide [11]: 0.12 nM | IC50, Casein Assay [12]: 0.35 nM | IC50, H2-Opt Assay [12]: 0.17 nM | IC50 (read off the curve), HTRA1 protease assay, casein substrate 0.05 ug/ml (inverted triangles) [13]: ~0.2 nM | IC50 (read off the curve), HTRA1 protease assay, casein substrate 0.1 ug/ml (triangles) [13]: ~0.2 nM | IC50 (read off the curve), HTRA1 protease assay, casein substrate 0.2 ug/ml (circles) [13]: ~0.2 nM | IC50 (read off the curve), HTRA1 protease assay, casein substrate 0.3 ug/ml (squares) [13]: ~0.2 nM | Ki [14]: 0.099 nM | Ki [15]: 0.076 nM | Ki [16]: 0.054 nM | Ki [17]: 0.118 nM | Kd [18]: 0.012 nM | koff [18]: 8.5e-05 s⁻¹ | kon [18]: 7.4e+06 M⁻¹ s⁻¹

B2: antibody hz24F7.v2 (antibody, human IgG1, kappa, N297G, V domains shown)
VH: QVQLVQSGAEVKKPGASVKVSCKASGYTFTDYEMHWVRQAPGQRLEWMGAIDPETGGTAYNQKFKGRVTITADKSASTAYMELSSLRSEDTAVYYCTREGYSYEGGGYYFDYWGQGTLVTVSS
VL: DIQMTQSPSSLSASVGDRVTITCSVSSSVSYMYWYQQKPGKAPKLLIYDTSNLASGVPSRFSGSGSGTDFTFTISSLQPEDIATYYCQQWSSYPTFGQGTKLEIKR
notes: also called humanized variant of 24F7
amount of HTRA1 protein in PK serum samples after IV dosing of hz24F7.v2 [19]: ~4 fold | amount of HTRA1 protein in PK serum samples after IVT dosing of hz24F7.v2 [19]: ~2 fold | Kd [20]: 0.058 nM | koff [20]: 4.2e-05 s⁻¹ | kon [20]: 710000 M⁻¹ s⁻¹ | koff [21]: 5.6e-05 s⁻¹ | Kd [10]: 0.093 nM | koff [10]: 0.00014 s⁻¹ | kon [10]: 1.5e+06 M⁻¹ s⁻¹ | koff [22]: 0.00017 s⁻¹ | IC50, Casein Assay [12]: 0.29 nM | IC50, H2-Opt Assay [12]: 0.12 nM | IC50 at baseline [23]: 0.066 nM | IC50, enzyme assay; hz24F7.v2 reference in the S91Y column [24]: 0.0645 nM | IC50, enzyme assay; hz24F7.v2 reference in the S92T column [24]: 0.0645 nM | IC50 (read off the curve), HTRA1 enzymatic assay, Hz24F7.v2 standard (dark squares) [25]: ~0.1 nM | Kd [26]: 0.0176 nM | koff [26]: 0.000225 s⁻¹ | kon [26]: 1.28e+07 M⁻¹ s⁻¹ | kon [27]: 1.1e+07 M⁻¹ s⁻¹ | Kd [28]: < 0.1 nM | Kd [29]: < 0.1 nM | Ki [14]: 0.086 nM | Ki [15]: 0.067 nM | Kd [30]: 0.213 nM | koff [30]: 0.000416 s⁻¹ | kon [30]: 1.95e+06 M⁻¹ s⁻¹ | Kd [31]: 0.178 nM | koff [31]: 0.000374 s⁻¹ | kon [31]: 2.1e+06 M⁻¹ s⁻¹ | Kd [32]: 0.144 nM | koff [32]: 0.000388 s⁻¹ | kon [32]: 2.68e+06 M⁻¹ s⁻¹ | Kd [33]: 0.167 nM | koff [33]: 0.000502 s⁻¹ | kon [33]: 3.01e+06 M⁻¹ s⁻¹ | kon [34]: ≥ 3.9e+06 M⁻¹ s⁻¹
